Common to all, as to details: blunt
The target in data set [1] is T1, Nt.BspD6I (UniProt A3FEV7 1-604).
T1 sequence: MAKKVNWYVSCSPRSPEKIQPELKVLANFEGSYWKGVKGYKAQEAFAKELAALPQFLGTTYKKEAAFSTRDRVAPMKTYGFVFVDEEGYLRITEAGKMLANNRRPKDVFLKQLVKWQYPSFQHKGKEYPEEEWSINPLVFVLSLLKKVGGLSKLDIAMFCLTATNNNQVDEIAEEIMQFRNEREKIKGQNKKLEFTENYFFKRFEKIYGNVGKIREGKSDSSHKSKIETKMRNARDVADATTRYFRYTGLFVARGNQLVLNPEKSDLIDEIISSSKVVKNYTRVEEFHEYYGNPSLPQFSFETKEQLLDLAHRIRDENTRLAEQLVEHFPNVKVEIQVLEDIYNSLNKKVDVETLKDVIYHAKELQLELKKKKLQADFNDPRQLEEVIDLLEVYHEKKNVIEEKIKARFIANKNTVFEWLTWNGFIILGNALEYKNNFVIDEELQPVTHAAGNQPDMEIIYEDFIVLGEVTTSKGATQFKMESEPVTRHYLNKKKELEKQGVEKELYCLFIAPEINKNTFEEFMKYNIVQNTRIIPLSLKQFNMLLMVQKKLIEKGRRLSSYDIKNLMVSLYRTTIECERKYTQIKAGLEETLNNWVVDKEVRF
Kind of data set: stopped-flow Trp fluorescence; 10 mM Ca2+; kobs k1 261 s-1, k2 6.2 s-1; Stopped-flow, 37 °C, 10 mM CaCl2 or 10 mM MgCl2 (or 0.4 mM EDTA without divalent metal); 1 µM enzyme (Trp) or 1 µM DNA (FRET); buffer, salt and pH not in the supplied text.

In data set [2] the target is T1, Nt.BspD6I. Kind of data set: stopped-flow Trp fluorescence; 0.4 mM EDTA, no divalent metal; Stopped-flow, 37 °C, 10 mM CaCl2 or 10 mM MgCl2 (or 0.4 mM EDTA without divalent metal); 1 µM enzyme (Trp) or 1 µM DNA (FRET); buffer, salt and pH not in the supplied text.
Data set [3] deals with T1, Nt.BspD6I. Kind of data set: stopped-flow Trp fluorescence; 10 mM Ca2+; Stopped-flow, 37 °C, 10 mM CaCl2 or 10 mM MgCl2 (or 0.4 mM EDTA without divalent metal); 1 µM enzyme (Trp) or 1 µM DNA (FRET); buffer, salt and pH not in the supplied text.
In data set [4] the target is T1, Nt.BspD6I. Kind of data set: stopped-flow Trp fluorescence; 10 mM Mg2+; Stopped-flow, 37 °C, 10 mM CaCl2 or 10 mM MgCl2 (or 0.4 mM EDTA without divalent metal); 1 µM enzyme (Trp) or 1 µM DNA (FRET); buffer, salt and pH not in the supplied text.
Data set [5] deals with T1, Nt.BspD6I. Kind of data set: stopped-flow Trp fluorescence; 10 mM Mg2+; kobs k1 126 s-1, k2 7.0 s-1; Stopped-flow, 37 °C, 10 mM CaCl2 or 10 mM MgCl2 (or 0.4 mM EDTA without divalent metal); 1 µM enzyme (Trp) or 1 µM DNA (FRET); buffer, salt and pH not in the supplied text.
Data set [6] concerns the target T1, Nt.BspD6I. Kind of data set: stopped-flow Trp fluorescence; 10 mM Mg2+; kobs k1 232 s-1, k2 21 s-1; Stopped-flow, 37 °C, 10 mM CaCl2 or 10 mM MgCl2 (or 0.4 mM EDTA without divalent metal); 1 µM enzyme (Trp) or 1 µM DNA (FRET); buffer, salt and pH not in the supplied text.
Data set [7] deals with T1, Nt.BspD6I. Kind of data set: stopped-flow Trp fluorescence; 10 mM Mg2+; kobs k1 145 s-1, k2 10.0 s-1; Stopped-flow, 37 °C, 10 mM CaCl2 or 10 mM MgCl2 (or 0.4 mM EDTA without divalent metal); 1 µM enzyme (Trp) or 1 µM DNA (FRET); buffer, salt and pH not in the supplied text.
Data set [8] addresses T1, Nt.BspD6I. Kind of data set: stopped-flow Trp fluorescence; 10 mM Mg2+; kobs k1 490 s-1, k2 128 s-1; Stopped-flow, 37 °C, 10 mM CaCl2 or 10 mM MgCl2 (or 0.4 mM EDTA without divalent metal); 1 µM enzyme (Trp) or 1 µM DNA (FRET); buffer, salt and pH not in the supplied text.

A word on the Kd: it is the constant that tells how readily two partners part at equilibrium.

B1: II-19 (dsDNA)
DNA 1: GGTCTCGAGTCTTCTCAAG
DNA 2: CTTGAGAAGACTCGAGACC
Take B1: the binding result with Nt.BspD6I [1] is given as “binds”.

B2: VI-30 (dsDNA)
DNA 1: GCGTGGTCTCGAGTCTTCTCAAGGTACCTG
DNA 2: CAGGTACCTTGAGAAGACTCGAGACCACGC
B2: the dissociation constant Kd with Nt.BspD6I [2] stood at 13 ± 3 nM.

B3: VI-30N (dsDNA)
DNA 1: GTATGAAGCTAGAGCCAGGTTGGCAGCATC
DNA 2: GATGCTGCCAACCTGGCTCTAGCTTCATAC
As for B3, the Kd with Nt.BspD6I [3] worked out at 60 ± 20 nM; with Nt.BspD6I [4], 70 ± 20 nM.

B4: V-26 (dsDNA)
DNA 1: CGTGGTCTCGAGTCTTCTCAAGGTAC
DNA 2: GTACCTTGAGAAGACTCGAGACCACG
As to B4, in the data set with Nt.BspD6I [5], the binding result was “binds”.

B5: III-21 (dsDNA)
DNA 1: GGTCTCGAGTCTTCTCAAGGT
DNA 2: ACCTTGAGAAGACTCGAGACC
Turning to B5, in the data set with Nt.BspD6I [6], the binding result is given as “binds”.

B6: IV-23 (dsDNA)
DNA 1: GGTCTCGAGTCTTCTCAAGGTAC
DNA 2: GTACCTTGAGAAGACTCGAGACC
For the molecule B6, the binding result in the data set with Nt.BspD6I [7] is reported as “binds”.

B7: I-17 (dsDNA)
DNA 1: GGTCTCGAGTCTTCTCA
DNA 2: TGAGAAGACTCGAGACC
Take B7: the binding result in the data set with Nt.BspD6I [8] was “binds”.

The record behind these values is PMC8533099, “Kinetic Analysis of the Interaction of Nicking Endonuclease BspD6I with DNA”.
